B1: Ideonella sakaiensis 201-F6 MHETase (Is MHETase), wild type, Genbank GAP38911.1, C-terminal His tag (DNA SEQ ID NO: 1) (Pseudideonella sakaiensis) (protein)
chain: CAGGGSTPLPLPQQQPPQQEPPPPPVPLASRAACEALKDGNGDMVWPNAATVVEVAAWRDAAPATASAAALPEHCEVSGAIAKRTGIDGYPYEIKFRLRMPAEWNGRFFMEGGSGTNGSLSAATGSIGGGQIASALSRNFATIATDGGHDNAVNDNPDALGTVAFGLDPQARLDMGYNSYDQVTQAGKAAVARFYGRAADKSYFIGCSEGGREGMMLSQRFPSHYDGIVAGAPGYQLPKAGISGAWTTQSLAPAAVGLDAQGVPLINKSFSDADLHLLSQAILGTCDALDGLADGIVDNYRACQAAFDPATAANPANGQALQCVGAKTADCLSPVQVTAIKRAMAGPVNSAGTPLYNRWAWDAGMSGLSGTTYNQGWRSWWLGSFNSSANNAQRVSGFSARSWLVDFATPPEPMPMTQVAARMMKFDFDIDPLKIWATSGQFTQSSMDWHGATSTDLAAFRDRGGKMILYHGMSDAAFSALDTADYYERLGAAMPGAAGFARLFLVPGMNHCSGGPGTDRFDMLTPLVAWVERGEAPDQISAWSGTPGYFGVAARTRPLCPYPQIARYKGSGDINTEANFACAAPP
B2: Comamonas thiooxydans MHETase (putative MHETase, Genbank WP_080747404.1), C-terminal His tag (Comamonas thiooxydans) (protein)
chain: HMFVRNADRAKNCMRAPLRVFPLKDTFSAQCANVSVWITSSVPPLRERHMDRRVTRRDLMQTRILLMLIAATGVAACGGDGGSTPAAQNPPLPLASRAACEAFQGNSNSIAWPHRATVVEVATWHEAEPANATAAATPEHCEISGAIARRTGIDGYPYEIKFRLRMPSEWNGRFFMEGGGGTNGSLSAATGSLGGGQTASALSRNFATIATDGGHDNAVNNNPDALGTVAFGMDPQARIDMGYNSYDQVTQAGKAAVAQFYGRAPDKSYFIGCSEGGREGMMLSQRFPSHYDGIVAGAPGYQLPKAGISGAWTTQSLAPAAVGVDAQNVPLINKAFSDVDLHLLSRGILGTCDALDGLSDGIVNDFRACQAAFDPATALNPDTSQPLQCTGAKTPDCLSAAQVTGIKRAMGGPVDSAGAALYNRWAWDPGMSGLNGTSYNQGWRSWWLGSYASSTNNAQRVNGFSARSWLVDFATPPEPMPVTQVAARMMNFNFDTDPPKIRATSGPFTPSSMEWHGATSTNLAAFRDRGGKLMLYHGMSDAAFSALDTADYYERLGAAMPGAAGFARLFLVPGMNHCSGGPGTDRFDMLTPLVAWVERDKAPDQVSAWAGTPGYFGATARTRPLCPYPQIARYKGSGDINAEASFVCVAPLE

Legend:
[1] = substrate: O=C(O)c1ccc(C(=O)OCCO)cc1; assay: purified protein, by the assay type; details: other: MHET 10-250 μM, 5 nM enzyme, pH 7.5, 30° C., substrate inhibition model
[2] = substrate: O=C(O)c1ccc(C(=O)OCCO)cc1; assay: Michaelis-Menten kinetics of MHETase and variants (substrate inhibition model); assay type: biochemical, Comamonas thiooxydans; details: other: MHET 10-250 μM, 5 nM enzyme, pH 7.5, 30° C.

Protein | Km [1] [µM] | Km [2] [µM] | Vmax [2] [µM/min] | kcat/Km [2] [M⁻¹ s⁻¹]
B1 | 23.17 ± 1.65 |  |  | 
B2 |  | 174.70 ± 4.75 | 12.2 | 230000

From patent publication US20230151340A1, “PLASTIC DEGRADING FUSION PROTEINS AND METHODS OF USING THE SAME” (Alliance for Sustainable Energy, LLC, priority 2020, published 2023)
